In the RNAGym collection of RNA variant scans (doi:10.7554/elife.90254) one finds self-cleavage data, which are given here for 41 variants.

Sequences and labels used below:
B1: OR4K15 (parent)
chain: GUUAACGGUCAUAGGCCAUGGAAACUAGGAGCACCAUUUCGCUGCCAGUGAAGAAAUGAACAAAGAAAAUCUGGGCCAGGCAGGCAUCAAAAGAAAUAGUCUUGCGCUCAACCAGAAAGUCUGUAAUCAUUUUAAGGGUA

In the series the parent is B1. The series can be described thus: self-cleavage, relative activity (ratio to wild type); higher = more cleavage; in vitro, sequencing; the parent is a self-cleaving ribozyme.
For GUUAACGGUCAUAGGCCAUGGAAACUAGGCGCACCAUUUCGCUGCCAGUGAAGAAAUGAACAAAGAAAAUCUGGGCCAGGCAGGCAUCAAAAGAAAUAGUCUUGCGCUCAGCCAGAAAGUCUGUAAUCAUUUUAAGGGUA [A30C A111G], the self-cleavage worked out at 0.07.

In the case of GUUAACGGUCAUAGGCCAUGGAAACUAGGCGCACCAUUUCGCUGCCAGUGAAGAAGUGAACAAAGAAAAUCUGGGCCAGGCAGGCAUCAAAAGAAAUAGUCUUGCGCUCAACCAGAAAGUCUGUAAUCAUUUUAAGGGUA [A30C A56G], the self-cleavage worked out at 1.27. With GUUAACGGUCAUAGGCCAUGGAAACUAGAAGCACCAUUUCGCUGCCAGUGAAGAAAUGAACAAAGAAAAUCUGGGCCAGGCAGGCAUCAAAAGAAAUAGUCUUGCGCUCAACCAGAGAGUCUGUAAUCAUUUUAAGGGUA [G29A A117G], the self-cleavage is 1.77.

Regarding GUUAACGGUCAUAGGCCAUGGAAACUAGAAGCACCAUUUCGCUGCCAGUGAAGAAAUGAACAAAGAAAAUCUGGGCCAGGCAGGCAUCAAAAGAAAUAGUCUCGCGCUCAACCAGAAAGUCUGUAAUCAUUUUAAGGGUA [G29A U103C], the self-cleavage worked out at 0.77.

With GUUAACGGUCAUAGGCCAUGGAAACUAGGCGCACCAUUUCGCUGCCAGUGAAGAAAUGAACAAAGAAAAUCUGGGCCAGGCAGGCAUCAAAAGAAAUAGUCUUGCGCUCAACCAGGAAGUCUGUAAUCAUUUUAAGGGUA [A30C A116G], the self-cleavage is 0.89. As for GUUAACGGUCAUAGGCCAUGGAAACUAGAAGCACCAUUUCGCUGCCAGUGAAGAAAUGAACAAAGAAAAUCUGGGCCAGGCAGGCAUCAAAAGAAAUAGUCUUGCGCUCAACCAGAAAGUCUGUAAUCAUCUUAAGGGUA [G29A U131C], the figure is 0.66.

For the variant GUUAACGGUCAUAGGCCAUGGAAACUAGAAGCACCAUUUCGCUGCCAGUGAAGAAAUGAACAAAGAAAAUCCGGGCCAGGCAGGCAUCAAAAGAAAUAGUCUUGCGCUCAACCAGAAAGUCUGUAAUCAUUUUAAGGGUA [G29A U72C], the self-cleavage is 0.27. As for GUUAACGGUCAUAGGCCAUGGAAACUAGAAGCACCAUUUCGCUGCCAGUGAAGAAAUGAACAAAGAAAAUCUGGGCCAGGCAGGCAUCAAAAGAAAUAGUCUUGCGCUCAACCAGAAAGUCUGUGAUCAUUUUAAGGGUA [G29A A125G], the self-cleavage is 0.24. Consider GUUAACGGUCAUAGGCCAUGGAAACUAGAAGCACCAUUUCGCUGCCAGUGAAGAAAUGAACAAAGAAAAUCUGGGCCAGGCAGGCAUCAAAAGAAAUAGUCUUGCGCUCAACCAGAAAGUCUGAAAUCAUUUUAAGGGUA [G29A U124A], for which the self-cleavage is 0.77. As for GUUAACGGUCAUAGGCCAUGGAAACUAGCAGCACCAUUUCGCUGCCAGUGAAGAAAUGAACAAAGAAAAUCUGGGCCAGGCAGGCAUCAAAAGAAGUAGUCUUGCGCUCAACCAGAAAGUCUGUAAUCAUUUUAAGGGUA [G29C A96G], the figure is 1.67; as for GUUAACGGUCAUAGGCCAUGGAAACUAGGCGCACCAUUUCGCUGCCAGUGAAGAAAUGAACAAAGAAAAUCUGGGCCAGGCAGGCAUCAAAAGAAAUAGUCUUGCGCCCAACCAGAAAGUCUGUAAUCAUUUUAAGGGUA [A30C U108C], 0. GUUAACGGUCAUAGGCCAUGGAAACUAGUAGCACCAUUUCGCUGCCAGUGAAGAAAUGAACAAAGAAAAUCUGGGCCAGGCAGGCAUCAAGAGAAAUAGUCUUGCGCUCAACCAGAAAGUCUGUAAUCAUUUUAAGGGUA [G29U A91G]: the self-cleavage came out at 1.67.

Turning to GUUAACGGUCAUAGGCCAUGGAAACUAGCAGCACCAUUUCGUUGCCAGUGAAGAAAUGAACAAAGAAAAUCUGGGCCAGGCAGGCAUCAAAAGAAAUAGUCUUGCGCUCAACCAGAAAGUCUGUAAUCAUUUUAAGGGUA [G29C C42U], the self-cleavage came to 1.06.

In the case of GUUAACGGUCAUAGGCCAUGGAAACUAGUAGCACCAUUUCGCUGCCAGUGAAGAAAUGGACAAAGAAAAUCUGGGCCAGGCAGGCAUCAAAAGAAAUAGUCUUGCGCUCAACCAGAAAGUCUGUAAUCAUUUUAAGGGUA [G29U A59G], the self-cleavage is 1.31. For the variant GUUAACGGUCAUAGGCCAUGGAAACUAGAAGCACCAUUUCGCUGCCAGUGAAGAAAUGAACAAAGAAAAUCUGGGCCAGGCAGGCAUCAAAAGAAAUAGUCUUGCGCUCAACCAGAAAGUCUGUAAUCAUUUUAAGGGGA [G29A U139G], the self-cleavage came to 0.86. Consider GUUAACGGUCAUAGGCCAUGGAAACUAGAAGCACCAUUUCGCUGCCAGUGAAGAAAUGAACAAAGAAAAUCUGGGCCAGGCAGGCAUCAAAAGAAAUAGUCUUGCGCUCAACCAGAAAGUCUGUAAUCAUUUUAAGGGCA [G29A U139C], for which the self-cleavage amounted to 2.53. Regarding GUUAACGGUCAUAGGCCAUGGAAACUAGCAGCACCAUUUCGCUGCCAGUGAAGAAAUGAACAAAGAAAAUCUGGGCCAGGCAGGCAUCAAAAGAAAUAGUCUUGCGCACAACCAGAAAGUCUGUAAUCAUUUUAAGGGUA [G29C U108A], the self-cleavage was determined as 0.02. Regarding GUUAACGGUCAUAGGCCAUGGAAACUAGGCGCACCAUUUCGCUGCCAGUGAAGAAAUGAACAAAGAAGAUCUGGGCCAGGCAGGCAUCAAAAGAAAUAGUCUUGCGCUCAACCAGAAAGUCUGUAAUCAUUUUAAGGGUA [A30C A68G], the self-cleavage worked out at 0.67. Turning to GUUAACGGUCAUAGGCCAUGGAAACUAGAAGCACCAUUUCGCUGCCAGUGAAGAAAUGAACAAAGAAAAUCUGGGCCAGGCAGGCACCAAAAGAAAUAGUCUUGCGCUCAACCAGAAAGUCUGUAAUCAUUUUAAGGGUA [G29A U87C], the self-cleavage worked out at 1.7. The same measure for GUUAACGGUCAUAGGCCAUGGAAACUAGAAGCACCAUUUCGCUGCCAGUGAAGAAAUGAACAAAGAAAAUCUGGGCCAGGCAGGCAACAAAAGAAAUAGUCUUGCGCUCAACCAGAAAGUCUGUAAUCAUUUUAAGGGUA [G29A U87A]: 1.79; for GUUAACGGUCAUAGGCCAUGGAAACUAGCAGCACCAUUUCGCUGCCAGUGAAGAAAUGAACAAAGAAAAUCUGGGCCAGGCAGGCAUCAAAAGAAAUAGUCUUGCGCUCAACCAGAAAGUCUGUAACCAUUUUAAGGGUA [G29C U127C]: 0.39. As for GUUAACGGUCAUAGGCCAUGGAAACUAGUAGCACCAUUUCGCUGCCAGUGAAGAAAUGAACAGAGAAAAUCUGGGCCAGGCAGGCAUCAAAAGAAAUAGUCUUGCGCUCAACCAGAAAGUCUGUAAUCAUUUUAAGGGUA [G29U A63G], the self-cleavage was 2.9. Turning to GUUAACGGUCAUAGGCCAUGGAAACUAGAAGCACCAUUUCGCUGCCAGUGAAGAAGUGAACAAAGAAAAUCUGGGCCAGGCAGGCAUCAAAAGAAAUAGUCUUGCGCUCAACCAGAAAGUCUGUAAUCAUUUUAAGGGUA [G29A A56G], the self-cleavage is 1.5. As for GUUAACGGUCAUAGGCCAUGGAAACUAGAAGCACCAUUUCGCUGCCAGUGAAGGAAUGAACAAAGAAAAUCUGGGCCAGGCAGGCAUCAAAAGAAAUAGUCUUGCGCUCAACCAGAAAGUCUGUAAUCAUUUUAAGGGUA [G29A A54G], the self-cleavage was found to be 1.96. As for GUUAACGGUCAUAGGCCAUGGAAACUAGGCGCACCAUUUCGCUGCCAGUGAAGAAAUGAACAAAGAAAAUCUGGGCCAGGCAGGCAUCAAAAGAAAUAGUCUUGCGCUCAACCAGAAAGCCUGUAAUCAUUUUAAGGGUA [A30C U120C], the figure is 0.69; as for GUUAACGGUCAUAGGCCAUGGAAACUAGGCGCACCAUUUCGCUGCCAGUGAAGAAAUGAACAAAGAAAAUCUGGGCCAGGCAGGCAUCAAAAGAAAUAGUCUUGCGCUCAACCAGAAAGUCUGUGAUCAUUUUAAGGGUA [A30C A125G], 0.31; as for GUUAACGGUCAUAGGCCAUGGAAACUAGUAGCACCAUUUCGCUGCCAGUGAAGAAAUGAACAAAGAAAAUCUGGGCCAGGCAGGCAUCAAAAGAAAUAGUCAUGCGCUCAACCAGAAAGUCUGUAAUCAUUUUAAGGGUA [G29U U102A], 1. The same measure for GUUAACGGUCAUAGGCCAUGGAAACUAGGCGCACCAUUUCGCUGCCAGUGAAGAAAUGAACAAAGAAAAUCUGGGCCAGGCAGGCAUCAAAAGAAGUAGUCUUGCGCUCAACCAGAAAGUCUGUAAUCAUUUUAAGGGUA [A30C A96G]: 1.43; for GUUAACGGUCAUAGGCCAUGGAAACUAGAAGCACCAUUUCGCUGCCAGUGAAGAAAUGAACAAAGAAAAUCUGGGCCAGGCAGGCAUCAAAAGAAACAGUCUUGCGCUCAACCAGAAAGUCUGUAAUCAUUUUAAGGGUA [G29A U97C]: 1.22.

With GUUAACGGUCAUAGGCCAUGGAAACUAGGCGCACCAUCUCGCUGCCAGUGAAGAAAUGAACAAAGAAAAUCUGGGCCAGGCAGGCAUCAAAAGAAAUAGUCUUGCGCUCAACCAGAAAGUCUGUAAUCAUUUUAAGGGUA [A30C U38C], the self-cleavage stood at 1.02. As for GUUAACGGUCAUAGGCCAUGGAAACUAGUAGCACCAUUUCGCUGCCAGUGAAGAAAUGAACAAAGAAAAUCUGGGCCAGGCAGGCAUCAGAAGAAAUAGUCUUGCGCUCAACCAGAAAGUCUGUAAUCAUUUUAAGGGUA [G29U A90G], the figure is 1.1; as for GUUAACGGUCAUAGGCCAUGGAAACUAGGCGCACCAUUUCGCUGCCAGUGAAGAAAUGAACAAAGAAAAUCUGGGCCAGGCAGGCAUCAAAAGAAAUAGUCUUGCGCUCAACCAGAAAGUCUGUAAUCAUUUUAAGGGUA [A30C], 1.6.

For GUUAACGGUCAUAGGCCAUGGAAACUAGAAGCACCAUUUCGCUGCCAGUGAAGAAAUGAACAAAGAAAAUCUGGGCCAGGCAGGCAUCAAAAGAAGUAGUCUUGCGCUCAACCAGAAAGUCUGUAAUCAUUUUAAGGGUA [G29A A96G], the self-cleavage was 2.13. Take GUUAACGGUCAUAGGCCAUGGAAACUAGAAGCACCAUUUCGCUGCCAGUGAAGAAAUGAACAAAGAAAAUCUGGGCCGGGCAGGCAUCAAAAGAAAUAGUCUUGCGCUCAACCAGAAAGUCUGUAAUCAUUUUAAGGGUA [G29A A78G]: the self-cleavage worked out at 0.28. With GUUAACGGUCAUAGGCCAUGGAAACUAGAAGCACCAUUACGCUGCCAGUGAAGAAAUGAACAAAGAAAAUCUGGGCCAGGCAGGCAUCAAAAGAAAUAGUCUUGCGCUCAACCAGAAAGUCUGUAAUCAUUUUAAGGGUA [G29A U39A], the self-cleavage was 1.8. With GUUAACGGUCAUAGGCCAUGGAAACUAGGCGCACCAUUUCGCUGCCAGUGAAGAAAUGGACAAAGAAAAUCUGGGCCAGGCAGGCAUCAAAAGAAAUAGUCUUGCGCUCAACCAGAAAGUCUGUAAUCAUUUUAAGGGUA [A30C A59G], the self-cleavage came to 0.35.

Turning to GUUAACGGUCAUAGGCCAUGGAAACUAGGCGCGCCAUUUCGCUGCCAGUGAAGAAAUGAACAAAGAAAAUCUGGGCCAGGCAGGCAUCAAAAGAAAUAGUCUUGCGCUCAACCAGAAAGUCUGUAAUCAUUUUAAGGGUA [A30C A33G], the self-cleavage came out at 1.9. As for GUUAACGGUCAUAGGCCAUGGAAACUAGGCGCACCAUUUCGCUGCCAGUGUAGAAAUGAACAAAGAAAAUCUGGGCCAGGCAGGCAUCAAAAGAAAUAGUCUUGCGCUCAACCAGAAAGUCUGUAAUCAUUUUAAGGGUA [A30C A51U], the self-cleavage was 2.04.

In the case of GUUAACGGUCAUAGGCCAUGGAAACUAGAAGCACCAUUUCGCUGCCAGUGAAGAAAUGGACAAAGAAAAUCUGGGCCAGGCAGGCAUCAAAAGAAAUAGUCUUGCGCUCAACCAGAAAGUCUGUAAUCAUUUUAAGGGUA [G29A A59G], the self-cleavage was found to be 1.26.

With GUUAACGGUCAUAGGCCAUGGAAACUAGCAGCACCAUUUCGCUGCCAGUGAAGAAAUGAACAAAGAAAAUCUGGGCCAGGCAGGCAUCAAGAGAAAUAGUCUUGCGCUCAACCAGAAAGUCUGUAAUCAUUUUAAGGGUA [G29C A91G], the self-cleavage came to 1.08. On to GUUAACGGUCAUAGGCCAUGGAAACUAGGCGCACCAUUUCGCUGCCAGUGAAGAAAUGAACAAAGAAAAUCUGGGCCAGGCAGGCAUCAAAAGAAAUAGUCUGGCGCUCAACCAGAAAGUCUGUAAUCAUUUUAAGGGUA [A30C U103G], for which the self-cleavage is 0.01.
